In patent US20260209320A1 (ALCHEMAB THERAPEUTICS, published 2026):

T1: Peptide 15 (human, cyno)
T1 peptide: QPQPPPPPPPPPPGP

T2: Peptide 14 (human, cyno)
T2 peptide: PQPQPPPPPPPPPPG

T3: Peptide 20 (cyno)
T3 peptide: QAQPMLPQPQPPPPP

T4: Peptide 6 (human)
T4 peptide: QQPPPPPPPPPPPQL

T5: Peptide 2 (human, cyno)
T5 peptide: QQQQQQQPPPPPPPP

T6: Epitope 1 (human, cyno)
T6 peptide: QQQQPPPPPPPPPPP

T7: Peptide 17 (human)
T7 peptide: QPPPPPPPPPPGPAV

T8: Peptide 13 (human)
T8 peptide: LPQPQPPPPPPPPPP

T9: Peptide 7 (human)
T9 peptide: PQAQPLLPQPQPPPP

T10: Peptide 10 (human)
T10 peptide: QPLLPQPQPPPPPPP

T11: Peptide 8 (human)
T11 peptide: QAQPLLPQPQPPPPP

T12: Peptide 11 (human)
T12 peptide: PLLPQPQPPPPPPPP

T13: Peptide 12 (human)
T13 peptide: LLPQPQPPPPPPPPP

T14: Peptide 9 (human)
T14 peptide: AQPLLPQPQPPPPPP

T15: Peptide 3 (human, cyno)
T15 peptide: QQQQQQPPPPPPPPP

T16: Peptide 4 (human, cyno)
T16 peptide: QQQQQPPPPPPPPPP

T17: Peptide 16 (human)
T17 peptide: PQPPPPPPPPPPGPA

T18: Peptide 1 (human, cyno)
T18 peptide: QQQQQQQQPPPPPPP

T19: Peptide 30 (cyno)
T19 peptide: MLPQPQPPPPPPPPP

T20: Peptide 23 (cyno)
T20 peptide: QQQQQQQQQQPPPPP

T21: Peptide 41 (mouse)
T21 peptide: PPQPPPQGQPPPPPP


Legend:
Peptide 15 [1] = biological target: T1, Peptide 15; assay: peptide microarray; Sp C2; IgG 1 µg/ml
Peptide 14 [2] = biological target: T2, Peptide 14; assay: peptide microarray; Sp C2; IgG 1 µg/ml
Peptide 20 [3] = biological target: T3, Peptide 20; assay: peptide microarray; Sp C1; IgG 1 µg/ml
Peptide 20 [4] = biological target: T3, Peptide 20; assay: peptide microarray; Sp C1; IgG 10 µg/ml
Peptide 15 [5] = biological target: T1, Peptide 15; assay: peptide microarray; Sp H; IgG 10 µg/ml
Peptide 14 [6] = biological target: T2, Peptide 14; assay: peptide microarray; Sp H; IgG 10 µg/ml
Peptide 6 [7] = biological target: T4, Peptide 6; assay: peptide microarray; Sp H; IgG 10 µg/ml
Peptide 2 = biological target: T5, Peptide 2; assay: peptide microarray; Sp H; IgG 1 µg/ml
Epitope 1 = biological target: T6, Epitope 1; assay: peptide microarray; Sp H; IgG 1 µg/ml
Peptide 17 = biological target: T7, Peptide 17; assay: peptide microarray; Sp H; IgG 1 µg/ml
Peptide 13 = biological target: T8, Peptide 13; assay: peptide microarray; Sp H; IgG 1 µg/ml
Peptide 7 = biological target: T9, Peptide 7; assay: peptide microarray; Sp H; IgG 1 µg/ml
Peptide 10 = biological target: T10, Peptide 10; assay: peptide microarray; Sp H; IgG 1 µg/ml
Peptide 8 = biological target: T11, Peptide 8; assay: peptide microarray; Sp H; IgG 1 µg/ml
Peptide 11 = biological target: T12, Peptide 11; assay: peptide microarray; Sp H; IgG 1 µg/ml
Peptide 12 = biological target: T13, Peptide 12; assay: peptide microarray; Sp H; IgG 1 µg/ml
Peptide 15 [8] = biological target: T1, Peptide 15; assay: peptide microarray; Sp H; IgG 1 µg/ml
Peptide 9 = biological target: T14, Peptide 9; assay: peptide microarray; Sp H; IgG 1 µg/ml
Peptide 3 = biological target: T15, Peptide 3; assay: peptide microarray; Sp H; IgG 1 µg/ml
Peptide 14 [9] = biological target: T2, Peptide 14; assay: peptide microarray; Sp H; IgG 1 µg/ml
Peptide 4 = biological target: T16, Peptide 4; assay: peptide microarray; Sp H; IgG 1 µg/ml
Peptide 16 = biological target: T17, Peptide 16; assay: peptide microarray; Sp H; IgG 1 µg/ml
Peptide 1 = biological target: T18, Peptide 1; assay: peptide microarray; Sp H; IgG 1 µg/ml
Peptide 6 [10] = biological target: T4, Peptide 6; assay: peptide microarray; Sp H; IgG 1 µg/ml
Peptide 15 [11] = biological target: T1, Peptide 15; assay: peptide microarray; Sp C2; IgG 10 µg/ml
Peptide 14 [12] = biological target: T2, Peptide 14; assay: peptide microarray; Sp C2; IgG 10 µg/ml
Peptide 30 = biological target: T19, Peptide 30; assay: peptide microarray; Sp C2; IgG 10 µg/ml
Peptide 23 [13] = biological target: T20, Peptide 23; assay: peptide microarray; Sp C2; IgG 1 µg/ml
Peptide 41 [14] = biological target: T21, Peptide 41; assay: peptide microarray; Sp M; IgG 1 µg/ml
Peptide 41 [15] = biological target: T21, Peptide 41; assay: peptide microarray; Sp M; IgG 10 µg/ml
Peptide 23 [16] = biological target: T20, Peptide 23; assay: peptide microarray; Sp C2; IgG 10 µg/ml

Binder | corrected fluorescence intensity (Peptide 2) | corrected fluorescence intensity (Epitope 1) | corrected fluorescence intensity (Peptide 17) | corrected fluorescence intensity (Peptide 13) | corrected fluorescence intensity (Peptide 7) | corrected fluorescence intensity (Peptide 10) | corrected fluorescence intensity (Peptide 8) | corrected fluorescence intensity (Peptide 11) | corrected fluorescence intensity (Peptide 12) | corrected fluorescence intensity (Peptide 9) | corrected fluorescence intensity (Peptide 3) | corrected fluorescence intensity (Peptide 4) | corrected fluorescence intensity (Peptide 16) | corrected fluorescence intensity (Peptide 1) | corrected fluorescence intensity (Peptide 30) | other results
ATL_0005335 (antibody, V domains shown, human IgG1; also called ATL_5335) VH: EVQLVESGGGLVKPGGSLRLSCAASGFTFNKAWMNWVRQAPGKGLEWVGRIKSGIDGGTTDYAAPVQGRFTISRDDSKNTVYLQMNSLNTEDTAVYYCIPPPYYYYYGLDVWGQGTTVTVSS VL: QSALTQPASVSGSPGQSITISCTGTSSDIGSYNLVSWYQQHPGNAPKPLIYEGSKRPSGVSARFSGSKSGNTASLTISGLQPEDEADYYCSSYAGFNTLVFGGGTKVTVL | 417 | 293 | 0 | 1130 | 0 | 845 | 434 | 936 | 932 | 622 | 626 | 409 | 77.5 | 0 | 6020 | corrected fluorescence intensity (Peptide 15 [1]): 0; corrected fluorescence intensity (Peptide 14 [2]): 0; corrected fluorescence intensity (Peptide 20 [3]): 187; corrected fluorescence intensity (Peptide 20 [4]): 1190; corrected fluorescence intensity (Peptide 15 [5]): 1130; corrected fluorescence intensity (Peptide 14 [6]): 1630; corrected fluorescence intensity (Peptide 6 [7]): 176; corrected fluorescence intensity (Peptide 15 [8]): 234; corrected fluorescence intensity (Peptide 14 [9]): 335; corrected fluorescence intensity (Peptide 6 [10]): 0; corrected fluorescence intensity (Peptide 15 [11]): 0; corrected fluorescence intensity (Peptide 14 [12]): 0
ATL_0005331 (antibody, V domains shown, human IgG1; also called ATL_5331; Human IgG1 ATL_0005331) VH: EVQLVESGGGLVKPGGSLRLSCAASGFTFNKAWMNWVRQAPGKGLEWVGRIKSGIDGGTTDYAAPVQGRFTISRDDSKNTVYLQMNSLNTEDTAVYYCIPPPYYYYYGLDVWGQGTTVTVSS VL: QSALTQPRSVSGSPGQSITISCTGTSSDVGSYNLVSWFQQHPGKAPKLIIYEVNKRPSGVPDRFSGSKSGNTASLTVSGLQAEDEADYYCGSYAGTNNVFGTGTKLTVL | 197 | 291 | 85.5 | 373 | 0 | 274 | 260 | 280 | 374 | 229 | 276 | 238 | 90.2 | 131 | 4250 | corrected fluorescence intensity (Peptide 23 [13]): 0; corrected fluorescence intensity (Peptide 41 [14]): 55; corrected fluorescence intensity (Peptide 41 [15]): 197; corrected fluorescence intensity (Peptide 23 [16]): 148
